# Measured values published in article PMC9035363 (Cell Reports, 2022).
# Like-named read-outs stand apart in the source and are kept apart here.
# B1: LY-CoV1404 (bebtelovimab), full-length human IgG1 mAb (antibody, V domains shown)
# VH: QITLKESGPTLVKPTQTLTLTCTFSGFSLSISGVGVGWLRQPPGKALEWLALIYWDDDKRYSPSLKSRLTISKDTSKNQVVLKMTNIDPVDTATYYCAHHSISTIFDHWGQGTLVTVSS
# VL: QSALTQPASVSGSPGQSITISCTATSSDVGDYNYVSWYQQHPGKAPKLMIFEVSDRPSGISNRFSGSKSGNTASLTISGLQAEDEADYYCSSYTTSSAVFGGGTKLTVL
# B2: LY-CoV1404 Fab (papain digestion) (Fab, V domains shown)
# VH: B1 VH
# VL: B1 VL
# B3: REGN10987 (imdevimab) (antibody, V domains shown)
# VH: QVQLVESGGGVVQPGRSLRLSCAASGFTFSNYAMYWVRQAPGKGLEWVAVISYDGSNKYYADSVKGRFTISRDNSKNTLYLQMNSLRTEDTAVYYCASGSDYGDYLLVYWGQGTLVTVSS
# VL: QSALTQPASVSGSPGQSITISCTGTSSDVGGYNYVSWYQQHPGKAPKLMIYDVSKRPSGVSNRFSGSKSGNTASLTISGLQSEDEADYYCNSLTSISTWVFGGGTKLTVL
# Legend:
# Assay in all cases: SPR
# [1] = molecular target: T1, SARS-CoV-2 S protein, soluble trimer (SARS-CoV-2, Wuhan reference …, UniProt P0DTC2, stabilised)
# [2] = molecular target: T1, SARS-CoV-2 S protein, soluble trimer; remark: listed apart in the source
# [3] = molecular target: T2, SARS-CoV-2 D614G S protein, soluble trimer (SARS-CoV-2, Wuhan sequence with D614G, UniProt A0A6H1PJZ3, D614G)
# [4] = molecular target: T2, SARS-CoV-2 D614G S protein, soluble …; remark: listed apart in the source
binder,measurement,setting,value
B1,Kd,[1],0.22 nM
same,Kd,[2],0.0745 nM
same,Kd,[3],0.0461 nM
B2,Kd,[4],0.79 nM
B3,binding result,[1],binds
